Assay results as given in US20180086841A1 (Merck Sharp & Dohme, published 2018).

T1: His9G-tagged cynomolgus CD27 recombinant protein (cynomolgus, limits assumed)
T1 construct: In-house, transient transfection of HEK293 cells; also called Cyno CD27/His
T1 chain: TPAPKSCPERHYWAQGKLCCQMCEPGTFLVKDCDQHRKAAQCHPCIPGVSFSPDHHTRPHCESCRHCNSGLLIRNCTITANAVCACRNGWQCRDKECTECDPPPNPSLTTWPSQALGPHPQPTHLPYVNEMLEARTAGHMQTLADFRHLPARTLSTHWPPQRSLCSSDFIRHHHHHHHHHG


Assays:
human CD27 [1] = biological target: T2, human CD27 (human, UniProt P26842 21-260); assay: cell ELISA on human CD27 CHOK1 cells, hIgG1
T2 construct: also called hCD27; HsCD27
Experimental: (§1) Purified antibodies were assayed for binding to human CD27 expressing CHOK1 cells using a cell-based ELISA format. Human CD27 expressing CHOK1 cells were plated in 96-well tissue-culture plates in 50 μl of DMEM/F12, 10% BCS (bovine calf serum) (CHO-K1 media). Cells were plated at either 2×10⁴ cells/well two days prior to the assay or 4×10⁴ cells/well one day prior to the assay. Media was removed from the wells prior to the assay followed by incubation of mAb in 100 μL fresh culture medium at a starting concentration of 10 μg/mL and 8 step 1:5 serial dilutions (hIgG4 antibodies) or starting concentration of 50 μg/mL and 8 step 1:5 serial dilutions (hIgG1 antibodies). The antibodies were incubated for 30-60 minutes at room temperature and washed 3 times with PBS/0.05% Tween 20 using a cell ELISA washing protocol on the Biotek EL405x Select CW plate washer.

human CD27 [2] = biological target: T2, human CD27; assay: flow cytometry on primary T cells
[3] = biological target: T3, His9G-tagged human CD27 recombinant protein (human, UniProt P26842 21-191); assay: SPR Biacore 4000, antibody captured on anti-human Fc, His9G-tagged CD27 injected, 1:1 fit;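 further: Double-referenced SPR (blank anti-Fc surface and buffer injection subtracted), KD derived from association and dissociation rate constants, with human and cynomolgus CD27 as analytes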
T3 construct: In-house, transient transfection of HEK293 cells; also called Human CD27/His
Text: (§2) Flow cell spots modified with anti-human Fc antibody but lacking CD27 antibodies were used as reference. […] The chip surface was regenerated with a 30 second injection of 3M MgCl₂ after each injection cycle.
(§3) Data were double referenced by subtracting the response from a blank surface and that from a buffer injection and used for analyzing the rate constant of association (kₐ) and dissociation (kd), and the equilibrium dissociation constant KD. The resulting data sets were fitted with a Langmuir 1:1 binding model using the Biacore 4000 BIAevaluation software, version 1.0 (GE/Biacore).

[4] = biological target: T1, His9G-tagged cynomolgus CD27 …; assay: as above
Text: as §2, §3

human CD27 [5] = biological target: T2, human CD27; assay: cell ELISA on transfected CHO cells
Experimental: as §1

human CD27 [6] = biological target: T2, human CD27; assay: flow cytometry MFI, CD4+ T cells of human PBMC, N=2 donors
Experimental: (§4) Labeled cells were washed by re-suspending them in 150 ul of staining buffer (SB) followed by centrifugation at 300 g for 5 minutes. Cells were then resuspended in 100 ul of SB containing primary anti-CD27 antibodies at various concentrations, incubated in the dark at 4° C. for 30 minutes, followed by washing and centrifugation steps as previously described. […] Cells were incubated for 30 minutes at 4° C. in the dark, followed by washing and centrifugation steps. Next, cells were stained with a cocktail of phenotypic antibodies for surface markers (CD3, CD4, CD8, CD11b) and incubated for 30 minutes at 4° C. in the dark, followed by washing and centrifugation steps. […] Samples were acquired in a LSR-Fortessa flow cytometer (BD Biosciences) using the high throughput sampler and data analyzed by FlowJo software (Tree Star Inc).

human CD27 [7] = biological target: T2, human CD27; assay: flow cytometry MFI, CD8+ T cells of human PBMC, N=2 donors
Experimental: as §4

human CD27 [8] = biological target: T2, human CD27; assay: cell ELISA on human CD27 CHOK1 cells, hIgG4
Experimental: as §1

| Binder | EC50 (human CD27 [1]) [nM] | EC50 relative to 131AVH6VL6-hIgG1 (human CD27 [2]) | Kd [3] [nM] | Kd [4] [nM] | fold EC50 against 131AVH6VL6-hIgG1 (human CD27 [5]) [fold] | EC50 (human CD27 [6]) [nM] | EC50 (human CD27 [7]) [nM] | EC50 (human CD27 [8]) [nM] |
| --- | --- | --- | --- | --- | --- | --- | --- | --- |
| hCD27.131A VH9VL9 huIgG4 (antibody, V domains shown) VH: EIQLVQSGAEVKKPGASVKVSCKASGYTFTNYGMNWVRQAPGQGLKWMGWINTNTGEPTYAEEFKGRFTFTLDTSASTAYMELSSLRSEDTAVYYCAREGDAMDYWGQGTTVTVSS VL: DIQLTQSPSTLSASVGDRVTITCSASSSVSYMHWYQQKPGKAPKRWIYDTSKLASGVPARFSGSGSGTDYTLTISSLQPEDFATYYCQQWNSYPFTFGQGTKLEIK | – | – | 104 | 72.9 | ≤ 2 | – | – | 0.13 |
| hCD27.131A VH6VL6 huIgG4 (antibody, V domains shown) VH: EIQLVQSGAEVKKPGASVKVSCKASGYTFTNYGMNWVKQAPGQGLKWMGWINTNTGEPTYAEEFKGRFTFTLDTSISTAYMELSSLRSEDTAVYYCAREGDAMDYWGQGTTVTVSS VL: EIVLTQSPATLSLSPGERATLSCSASSSVSYMHWYQQKPGQAPKRWIYDTSKLASGVPARFSGSGSGTDYSLTISSLEPEDFAVYYCQQWNSYPFTFGQGTKLEIK | – | – | 168 | 73 | – | – | – | 0.101 |
| hCD27.131A VH6VL8 huIgG4 (antibody, V domains shown) VH: EIQLVQSGAEVKKPGASVKVSCKASGYTFTNYGMNWVKQAPGQGLKWMGWINTNTGEPTYAEEFKGRFTFTLDTSISTAYMELSSLRSEDTAVYYCAREGDAMDYWGQGTTVTVSS VL: EIVLTQSPATLSASPGERVTLSCSASSSVSYMHWYQQKPGQAPKRWIYDTSKLASGVPARFSGSGSGTDYSLTISSMEPEDFAVYYCQQWNSYPFTFGQGTKLEIK | – | – | 99.1 | 55.2 | ≤ 2 | – | – | 0.103 |
| hCD27.131A VH8VL6 huIgG4 (antibody, V domains shown) VH: EIQLVQSGAEVKKPGASVKVSCKASGYTFTNYGMNWVKQAPGQGLKWMGWINTNTGEPTYAEEFKGRFTFTLDTSISTAYMELSSLRNEDTAVYYCAREGDAMDYWGQGTTVTVSS VL: EIVLTQSPATLSLSPGERATLSCSASSSVSYMHWYQQKPGQAPKRWIYDTSKLASGVPARFSGSGSGTDYSLTISSLEPEDFAVYYCQQWNSYPFTFGQGTKLEIK | – | – | 132 | 59.7 | ≤ 2 | – | – | 0.097 |
| hCD27.131A VH8VL8 huIgG4 (antibody, V domains shown) VH: EIQLVQSGAEVKKPGASVKVSCKASGYTFTNYGMNWVKQAPGQGLKWMGWINTNTGEPTYAEEFKGRFTFTLDTSISTAYMELSSLRNEDTAVYYCAREGDAMDYWGQGTTVTVSS VL: EIVLTQSPATLSASPGERVTLSCSASSSVSYMHWYQQKPGQAPKRWIYDTSKLASGVPARFSGSGSGTDYSLTISSMEPEDFAVYYCQQWNSYPFTFGQGTKLEIK | – | – | 110 | 96.7 | ≤ 2 | – | – | 0.129 |
| hCD27.131A VH8VL7 huIgG4 (antibody, V domains shown) VH: EIQLVQSGAEVKKPGASVKVSCKASGYTFTNYGMNWVKQAPGQGLKWMGWINTNTGEPTYAEEFKGRFTFTLDTSISTAYMELSSLRNEDTAVYYCAREGDAMDYWGQGTTVTVSS VL: EIVLTQSPATLSLSPGERATLSCSASSSVSYMHWYQQKPGQAPKRWIYDTSKLASGVPARFSGSGSGTSYSLTISSLEPEDFATYYCQQWNSYPFTFGQGTKLEIK | – | – | 89.3 | 76.8 | ≤ 2 | – | – | 0.088 |
| hCD27.131A VH6VL7 huIgG4 (antibody, V domains shown) VH: EIQLVQSGAEVKKPGASVKVSCKASGYTFTNYGMNWVKQAPGQGLKWMGWINTNTGEPTYAEEFKGRFTFTLDTSISTAYMELSSLRSEDTAVYYCAREGDAMDYWGQGTTVTVSS VL: EIVLTQSPATLSLSPGERATLSCSASSSVSYMHWYQQKPGQAPKRWIYDTSKLASGVPARFSGSGSGTSYSLTISSLEPEDFATYYCQQWNSYPFTFGQGTKLEIK | – | – | 108 | 82 | ≤ 2 | – | – | 0.132 |
| hCD27.131A VH7VL7 huIgG4 (antibody, V domains shown) VH: EIQLVQSGAEVKKPGASVKISCKASGYTFTNYGMNWVKQAPGQGLKWMGWINTNTGEPTYAEEFKGRFTFTLDTSATTAYLEISSLRSEDTAVYYCAREGDAMDYWGQGTTVTVSS VL: EIVLTQSPATLSLSPGERATLSCSASSSVSYMHWYQQKPGQAPKRWIYDTSKLASGVPARFSGSGSGTSYSLTISSLEPEDFATYYCQQWNSYPFTFGQGTKLEIK | – | – | 82.4 | 36.7 | ≤ 2 | – | – | 0.084 |

These reach a lower Kd [3]. Values come first.

| EC50 (human CD27 [1]) [nM] | EC50 relative to 131AVH6VL6-hIgG1 (human CD27 [2]) | Kd [3] [nM] | Kd [4] [nM] | fold EC50 against 131AVH6VL6-hIgG1 (human CD27 [5]) [fold] | EC50 (human CD27 [6]) [nM] | EC50 (human CD27 [7]) [nM] | EC50 (human CD27 [8]) [nM] | Binder |
| --- | --- | --- | --- | --- | --- | --- | --- | --- |
| 0.111 | ≤ 10 % above the EC50 of 131AVH6VL6-hIgG1 | 62.2 | 105 | ≤ 2 | 0.0774 | 0.0721 | – | hCD27.131A VH9VL9 huIgG1 (antibody, V domains shown) VH: EIQLVQSGAEVKKPGASVKVSCKASGYTFTNYGMNWVRQAPGQGLKWMGWINTNTGEPTYAEEFKGRFTFTLDTSASTAYMELSSLRSEDTAVYYCAREGDAMDYWGQGTTVTVSS VL: DIQLTQSPSTLSASVGDRVTITCSASSSVSYMHWYQQKPGKAPKRWIYDTSKLASGVPARFSGSGSGTDYTLTISSLQPEDFATYYCQQWNSYPFTFGQGTKLEIK |
| 0.131 | ≤ 10 % above the EC50 of 131AVH6VL6-hIgG1 | 68.2 | 56.5 | ≤ 2 | 0.126 | 0.124 | – | hCD27.131A VH6VL8 huIgG1 (antibody, V domains shown) VH: EIQLVQSGAEVKKPGASVKVSCKASGYTFTNYGMNWVKQAPGQGLKWMGWINTNTGEPTYAEEFKGRFTFTLDTSISTAYMELSSLRSEDTAVYYCAREGDAMDYWGQGTTVTVSS VL: EIVLTQSPATLSASPGERVTLSCSASSSVSYMHWYQQKPGQAPKRWIYDTSKLASGVPARFSGSGSGTDYSLTISSMEPEDFAVYYCQQWNSYPFTFGQGTKLEIK |
| 0.13 | ≤ 10 % above the EC50 of 131AVH6VL6-hIgG1 | 71.7 | 41.9 | ≤ 2 | 0.123 | 0.11 | – | hCD27.131A VH6VL7 huIgG1 (antibody, V domains shown) VH: EIQLVQSGAEVKKPGASVKVSCKASGYTFTNYGMNWVKQAPGQGLKWMGWINTNTGEPTYAEEFKGRFTFTLDTSISTAYMELSSLRSEDTAVYYCAREGDAMDYWGQGTTVTVSS VL: EIVLTQSPATLSLSPGERATLSCSASSSVSYMHWYQQKPGQAPKRWIYDTSKLASGVPARFSGSGSGTSYSLTISSLEPEDFATYYCQQWNSYPFTFGQGTKLEIK |
| – | – | 58.5 | 40.1 | ≤ 2 | – | – | 0.086 | hCD27.131A VH7VL8 huIgG4 (antibody, V domains shown) VH: EIQLVQSGAEVKKPGASVKISCKASGYTFTNYGMNWVKQAPGQGLKWMGWINTNTGEPTYAEEFKGRFTFTLDTSATTAYLEISSLRSEDTAVYYCAREGDAMDYWGQGTTVTVSS VL: EIVLTQSPATLSASPGERVTLSCSASSSVSYMHWYQQKPGQAPKRWIYDTSKLASGVPARFSGSGSGTDYSLTISSMEPEDFAVYYCQQWNSYPFTFGQGTKLEIK |
| 0.162 | ≤ 10 % above the EC50 of 131AVH6VL6-hIgG1 | 41.3 | 34.8 | ≤ 2 | 0.128 | 0.127 | – | hCD27.131A VH7VL6 huIgG1 (antibody, V domains shown) VH: EIQLVQSGAEVKKPGASVKISCKASGYTFTNYGMNWVKQAPGQGLKWMGWINTNTGEPTYAEEFKGRFTFTLDTSATTAYLEISSLRSEDTAVYYCAREGDAMDYWGQGTTVTVSS VL: EIVLTQSPATLSLSPGERATLSCSASSSVSYMHWYQQKPGQAPKRWIYDTSKLASGVPARFSGSGSGTDYSLTISSLEPEDFAVYYCQQWNSYPFTFGQGTKLEIK |
| – | – | 65.7 | 58.2 | ≤ 2 | – | – | 0.042 | hCD27.131A VH7VL6 huIgG4 (antibody, V domains shown) VH: EIQLVQSGAEVKKPGASVKISCKASGYTFTNYGMNWVKQAPGQGLKWMGWINTNTGEPTYAEEFKGRFTFTLDTSATTAYLEISSLRSEDTAVYYCAREGDAMDYWGQGTTVTVSS VL: EIVLTQSPATLSLSPGERATLSCSASSSVSYMHWYQQKPGQAPKRWIYDTSKLASGVPARFSGSGSGTDYSLTISSLEPEDFAVYYCQQWNSYPFTFGQGTKLEIK |
| – | – | 43.4 | 31.2 | – | – | – | – | 131A chimera huIgG4 (antibody, V domains shown, also called chimeric mouse-human hCD27.131A huIgG4) VH: QIQLVQSGPELKKPGETVKISCKASGYTFTNYGMNWVKQAPGKGLKWMGWINTNTGEPTYAEEFKGRFAFSLETSATTAYLQINNLKNEDTATYFCAREGDAMDYWGQGTSVTVSS VL: QIVLTQSPAIMSASPGEKVTMTCSASSSVSYMHWYQQKSGTSPKRWIYDTSKLASGVPARFSGSGSGTSYSLTISSMEAEDAATYYCQQWNSYPFTFGSGTKLEIK |
| – | – | 29.2 | 40.4 | – | 0.0664 | 0.0649 | – | Mouse Human Chimera CD27 131A-hIgG1 (antibody, V domains shown, also called chimeric mouse-human hCD27.131A huIgG1) VH: QIQLVQSGPELKKPGETVKISCKASGYTFTNYGMNWVKQAPGKGLKWMGWINTNTGEPTYAEEFKGRFAFSLETSATTAYLQINNLKNEDTATYFCAREGDAMDYWGQGTSVTVSS VL: QIVLTQSPAIMSASPGEKVTMTCSASSSVSYMHWYQQKSGTSPKRWIYDTSKLASGVPARFSGSGSGTSYSLTISSMEAEDAATYYCQQWNSYPFTFGSGTKLEIK |
